Among the data in patent publication EP4721730A1, “PHARMACEUTICAL COMPOSITION COMPRISING SUSTAINED-RELEASE MICROSPHERE COMPRISING CAGRILINTIDE OR PHARMACEUTICALLY ACCEPTABLE SALT THEREOF AND PREPARATION METHOD THEREFOR” (G2GBIO, Inc., priority 2023, dated 2024) are cumulative blood concentration values, retold here.

This data set is described as follows: Pharmacokinetics of a single-dose subcutaneous administration using SD rats (concentration of cagrilintide in blood). The data set is classed as in vivo. The conditions noted are these: s.c. 1.2 mg/head. On the procedure:
In order to evaluate a potential of the microsphere according to the present invention as a sustained-release therapeutic agent, the concentration of the cagrilintide in rat blood was measured by the following method.
Specifically, the microsphere was measured so that a dosage of the cagrilintide becomes 1.2 mg/head (API raw material solution, Example 5-6) or 3.6 mg/head (Comparative Examples 1 to 2, Examples 1-1 to 1-3, Example 5-1), dispersed in 0.5 mL of a suspension, and then subcutaneously injected into SD rats. 0.25 to 0.5 mL of blood was collected at prescheduled times and the concentration of the cagrilintide in blood was measured using HPLC.

Regarding “cagrilintide [API raw material solution]”, the cumulative blood concentration runs as follows: (day 0, cagrilintide) 0.0%; (day 0.042, cagrilintide) 0.2%; (day 0.250, cagrilintide) 4.5%; (day 1, cagrilintide) 35.2%; (day 4, cagrilintide) 91.1%; (day 7, cagrilintide) 100.0%.
